As usually defined, the stoichiometry N is the number of molecules, sites or subunits per partner or assembly.

The values below come from PMC3578932, “In Vitro Characterization of Echinomycin Biosynthesis: Formation and Hydroxylation of L-Tryptophanyl-S-Enzyme and Oxidation of (2S,3S) β-Hydroxytryptophan” (PLoS ONE, 2013).

Experiment [1] concerns the target T1, Qui5 and holo-Qui18 coexpression product (complex) (Streptomyces griseovariabilis, UniProt G9JKM4).
T1 construct: full-length A-PCP didomain Qui18 (611 aa) and Qui5 (71 aa), both His6-tagged, coexpressed in E. coli BL21(DE3) with B. subtilis sfp; holo form 64,836 Da (4'-phosphopantetheine on PCP Ser); hetero-tetramer about 160 kD; with MbtH-like protein
Nature of the experiment: Q-TOF-MS of amino acid loading onto holo-Qui18. The class given is biochemical. To be noted: covalent; thioester to 4'-phosphopantetheine of the PCP domain; 5 mM L-tryptophan, 5 mM ATP, 10 mM MgCl2, 2 mM DTT, pH 8.0, 27°C, 2 hr.

Experiment [2] deals with A-PCP didomain NRPS protein Qui18 (Streptomyces griseovariabilis subsp. bandungensis subsp. nov) (UniProt G9JKM4). Description: SEC; copurified His6-tagged Qui5 and Qui18 from coexpression; peak at around 160 kD; fraction analysed by SDS-PAGE (data not shown). The following applies: scale: subunits of Qui5 with 2 subunits of Qui18. On the technique in general: In gel filtration, larger molecules generally elute earlier.

For experiment [3], the target named is tryptophan 2,3-dioxygenase Qui17 (Streptomyces griseovariabilis subsp. bandungensis subsp. nov). Description: SEC; purified His-tagged Qui17; data not shown.

With `N[C@@H](Cc1c[nH]c2ccccc12)C(=O)O` [L-tryptophan], in experiment [1], the “Q-TOF-MS of amino acid loading onto holo-Qui18” value was “Qui18 recognized L-tryptophan as its substrate and its function depended on the association with Qui5”. “MbtH-like protein Qui5 (natural protein)” showed a stoichiometry N in experiment [2] of 2. Regarding “tryptophan 2,3-dioxygenase Qui17 (enzyme)”, the stoichiometry N in experiment [3] turned out to be 4.
